This series is described as follows: yeast display, Sf9 membrane polyspecificity reagent, FACS + sequencing; frameworks hold sequencing errors. A digest of the protocol:
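After 36–48 hours of galactose induction, yeast (Saccharomyces cerevisiae BJ5465) displaying a synthetic nanobody library were stained at 4 °C for 1 hour with 10% biotinylated, detergent-solubilized Sf9 membrane reagent. Streptavidin microbeads enriched the stained cells before FACS sorting into low and high (top ~1%) gates on anti-HA and streptavidin fluorescence. Each clone's polyreactivity label reflects its gate of origin.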
Consider “QVQLVESGGGLVQAGGSLRLSCAASGSTFVWYVMGWYRQAPGKEREFVAAISTSGGRTYYADSVKGRFTISRDNAKNTGYLQMNSLKPEDTAVYYCATRPYFTYRWYDYWGQGTQVTVSS”, for which the “polyreactivity (PSR sort gate)” value was “high polyreactivity”.
For “QVQLVETGGGLVQAGGSLRLSCAASGSIFYTNAMGWYRQAPGKERELVAVITASGGSTYYADSVKGRFTISRDNAKNTVYLQMNSLKPEDTAVYYCAADPVFNYDYWGQGTQVTVSS”, the “polyreactivity (PSR sort gate)” value is on record as “low polyreactivity”.
As to “QVQLVESGGGLVQAGGSLRLTCAASGSTLYSYAMGWYRPAPGKERELVAAISKSGGRTYYADSVKGRFTISRDNAKISVYLEMNSLKPEDTAVYYCAGREKYTPALEVEYWGQGTQVTVSS”, the “polyreactivity (PSR sort gate)” value is recorded as “high polyreactivity”.
For the sequence “QVQLVESGGGLVQAGGSLRLSCAASGIIFLSYAIGWYRQAPGKERELFAAISSGVSTYSADSVKGRFTISRDNAKNPVYFQMNSLKPEDTAVYFCAAYYLWPGYQFRPYDYWGQGTQVTVSS”, the “polyreactivity (PSR sort gate)” value is “low polyreactivity”.
The result for “QVQHVESGGGLVQAGGSLRLSCAASGSTFWYNAMGWYRQAPGKERELVAAISYSGGRTYYADSVKGRFTISRDNAKNTVYLQMNSLKPEDTAVYYCNADSRYGGDYWGQGTQVTVSS” reads “low polyreactivity”.
Regarding “QVQLVESGGGLVQAGGSLRLSCAASGIIFPRYAMGWYRQAPGKERELVAAITIGGRTNYSDSVKGRFTISRDNAKNTVYLQMNSLKPEDTAVYYCAAQTYVPYYEYDYWGQGTQVTVSS”, the “polyreactivity (PSR sort gate)” value was “low polyreactivity”.
Regarding “QVQLVESGGGLLQAGGSLRLSCAASGSILGPYAMGWYRQAPGKERELVAGIDATDGSTYYADSVKGRFTISRDNAKNTVYLQMNSLKPEDTAVYYCAAAPYAYYGEYNYWGQGTQVTVSS”, the “polyreactivity (PSR sort gate)” value is listed as “low polyreactivity”.
Take “QVQLVQSVVGLVQAGRRLRLSSAASGRIFFYNAMGWYRHAPGKERELVAGISRSGTSTYYADSVKGRFTISRDNAKNTVYLHMNSLKPEDTAVYYCAAGTFYYWLSYDYWGQGTQVTVSS”: the “polyreactivity (PSR sort gate)” value was “low polyreactivity”.
As for “QVQLVESGGCLVQAGGSLRLSCAASGSTFPIYAMGWYRQAPGKERELVARITWNGGRTYYADSVKGRFTISRDNAKNTVYLQMNSLKPEDTAVYYCNARRYLRGYGYGYWGQGTQVTVSS”, the “polyreactivity (PSR sort gate)” value was “high polyreactivity”.
With “QVQLVESGGGLVQAGGSLRLSCAASRSTFRYYTMGWYRQSPGKERELVARISRSGGSTYYADSVKGRFTISRDNAKNTVYLQMNSLKPEDTSVYYCAALYYVKPGQRYDYWGQGTQVTVSS”, the “polyreactivity (PSR sort gate)” value is reported as “high polyreactivity”.
Regarding “QVQLVESGGGLVQAGGSLRLSCAASGRTFSFYAMGWYRQAPGKERELVAGIDWDDGSTSYADSVKGRFTISRDNAKNTVYLQMNSLKPEDTEVYYCAADIGYDVYNDYDYWGQGTQVTVSS”, the “polyreactivity (PSR sort gate)” value is “low polyreactivity”.
Take “QVQLVESGGGLVQAGGSLRLSCAASGNTFYSYAMGWYRPAPGKERELVAAITWGGRTKYADSVKGRFTISRDNAKNTVYLQMNSLKPEDTAVYYCAARLYHGKTKYDYWGQGTQVTVSS”: the “polyreactivity (PSR sort gate)” value is recorded as “high polyreactivity”.
The result for “QVQLEDSGGGLVQAGGSLRLTCAASGRIFYPNVIGRNRQAPGKERELVAAIRTSGTGTYYADSVKGRFTISRDNAMNNVYLQMNSQKTQDTAGYYCAADYGYNRYWWWDWSYEYGYEYWGQGTQVTVSS” reads “high polyreactivity”.
Turning to “QVQLVESGGGLVKAGGSLGLSCAASGSIFGVNAMGWYRQAPGKERELVAAISKRGGTTYYADSVKGRFTISRDNAKNTVYVQRHSLKPEDTAVYYCNAPYLWNYYGGRYDYWGQGTQVTVSS”, the “polyreactivity (PSR sort gate)” value is listed as “high polyreactivity”.
Consider “QVQLVESGGGLVQAGGSLRLSCDASGSIFPYNAMGWFRQAPGKEWELVAAISKRGGSTYYADSVKGRFTISRDNAKNTVYLQMNSLKPEDSAVYYCAARYPPYRSWYSYDSWGQGTQVTVSS”, for which the “polyreactivity (PSR sort gate)” value is “low polyreactivity”.
Turning to “QVQLGESGGGLVQAGGSLRLSCAASGRTFYINTMGWYRQAPGKEREFVAAISSGGGRTYYADSVKGRFTISRDNAKNTVYLQMNSLKPEDTAVYYCAAYLGGAEDTYRFGYWGQGTQVTVSS”, the “polyreactivity (PSR sort gate)” value is on record as “high polyreactivity”.
As for “QVQLVESCVGLVQAGGSLRLSCAASGRIFSRYAMGWYRQAPGKERELVADITWSGGRPYYADSVKGRFTISRDNAKNTVYLQMNSLKPEDTAVYDCAATGGFSWSRDYWGLGTQVTVSS”, the “polyreactivity (PSR sort gate)” value is listed as “low polyreactivity”.
“QVQLVESVGGLDQAGGSLRLSGAASGIIFEGNALGWYRQAPGKERELVAAITSRGTRTYYADSVKGRFTISRDHAKNTVYLQMNSLKPEDTAVYYCAKLTSVTGKSGRYGYEYWGQGTQVTVSS”: the “polyreactivity (PSR sort gate)” value is “high polyreactivity”.
On to “QVQLEESGGGLVQAGGSLSLSSAASGSIFRNYAKGWYRQAPGKERELVAAISVRGGSTYYADSVKGRFTISRDNAKNTVYLQMNSLKPEDTAVYYCNARTYYPVYYRDGGYWGQGTQVTVSS”, for which the “polyreactivity (PSR sort gate)” value is “high polyreactivity”.
“QVQLVESGGGLVQAGGSLRLSCAASGITFPAYAMGWYRQAPGKERELVAAISRRGGSTYYADSVKGRFTISRDYAKNTVYLQMNSLKPEDTAVYYCNADIKQRSDRYDYWGQGTQVTVSS”: the “polyreactivity (PSR sort gate)” value was “high polyreactivity”.
The value for “QVQLVESGGGIVQAGGTLRLSCAASGSTFFYYVMGWYRQAPGKERELVAAITSSGGGTYYADSVKGRFTISRDNAKNTVYLQMKSLKPEDTAVYYCAKPVWWRDYRHGGRFGYWGQGTQVTVSS” was “low polyreactivity”; that for “QVQLVESGGGLVPAGGSLRLSCAASGSTFSDYAMGWYRQAPGKERELVASIDSGDSTNYADSVKGRFTISRDNAKNTVYLQMTSLKPEDTAVYFCAADYQNTGARYGYYYWGQGTQVTVSS” was “low polyreactivity”; that for “QVQLLESGGGLVQAGGSLRLSCAHSGLIIWANAMGWYRQAPGKESEMVAAISGSGGRTYYADSVKGRFSISRDNAKNTVYLEMNSLIPEDTAVYFCAAKVSAWKKKSEMNYWGQGTQVTVSS” was “high polyreactivity”.
Consider “QVQLVESGGGLVQAGGSLRLSCADSGFTFSWYTMGWYRQAPGKERELVAALTVSGGSTYYADSVKGRFTISRDNAKNTVYLQMNSLKPEDTAVYYCNAQDPFTYYSSSPTYDYWGQGTQVTVSS”, for which the “polyreactivity (PSR sort gate)” value is reported as “low polyreactivity”.
For “QVQLVESGGGLVQAGGSLRLSCAASGSIFGKNVMGWYRQAPGKDRELVAAITSGASTYYADSVKGRFTISRDNAKNTDYLQMNSLKPDDTAVYYCAARRWRKYYSGYNYWGHGTQVTVSS”, the “polyreactivity (PSR sort gate)” value is “high polyreactivity”.
The value for “QVQLVESGGGLVQAGGSLRLSCAASGFTFAVYVMGWYRQAPGKERELVATISFSVGSTYYADSVKGRFTISGDNAKNTVYLQMNRLKPEDTAVYYCNADPPPEYYPDKDNYWGQGTQVTVSS” was “low polyreactivity”; that for “QVQLVESGGRLVQAGGSLRLSCAASGSIFIPNAMGWYRQAPGKERELVAAITVSGGITYYADSVKGRFTISRDNAKNSVYLQMNSLKPEDTAVYYCAADFTIYYILEYDYWGQGTQVTVSS” was “low polyreactivity”; that for “QVQLVQSGGGLVQAGGSLRLSCAGSGYILQINAMGWYRQAPGKERELVAAISISGGNTYYADSVKGRFTNSRDNAKNTVYLQMNSLKPEDSAVYYCAAYRFYSYLVRYGLLLAYYYWGQGTQVTVSS” was “low polyreactivity”.
Take “QVQLVESGGGLVQAGGSLRLSCAASGLIFWGYTMGWYRPAPGKERELVASITTSGSTYYADSVKGRFTISRDNAKNTVYLQMNSLKPEDTAVYYCAVDNYYTPWYPYLGYDSWGQGTQVTVSS”: the “polyreactivity (PSR sort gate)” value is recorded as “low polyreactivity”.
“QDQLVESGGGLVQEGGSLRLSCAASVSIQAPYAMGWYRQAPGKERELVAAISSRGGSTYYADSVKGRFTISRDNAKNTVYLQMNSLKPEDTAVYYCAAYVYLQVEYDYWGQGTQVTVSW”: the “polyreactivity (PSR sort gate)” value was “low polyreactivity”.
Take “QVQLVESGGGLVQAGGSLRLSCAASGRIFRGYAMGWYRQAPGKERELVAAINSGGDTYYADSVKGRFTISRDNAKNTVYLQMNSLKPEDTAVYYCAAAWWDYGNGKYDYWGQGTQVTVSS”: the “polyreactivity (PSR sort gate)” value is recorded as “low polyreactivity”.
The value for “QVQLVESGGGLFQAGGSLRLSCSASGFIFRGYAMGWSRQAPGKERELVAAISTGGGRTYYADSVKGRFTISRDNAKNTVYLQMNSLKPEDTAVYYCNRLSYTQVLMDYWGQGTQVTVSS” was “high polyreactivity”; that for “QVQLVESGGGLVQAGGILRLSCPASGIIIPLYAMGWYIQAPGKERELVATINIGGSTNYADSVKGRFTISRDNAKNTVYLQMNSLKPEDTAVYYCAADVDSLQRYESWGQGTQVTVSS” was “low polyreactivity”.
As for “QVQLVESGGGLVQAGGSLRLSCAASGRTFSGYAMGWYRQAPGKERELVAAIDRGDGTNYADSVKGRFTISRDNAKNTVYLQMNSLKPEDTAVYYCAADDYWTPFGYWGQGTQVTVSS”, the “polyreactivity (PSR sort gate)” value is reported as “low polyreactivity”.
The result for “QVQLVESGGGLVQAGGSLRLSCAASGRTFTNYAMGWYRQAPGKERELVAAISKRGGTTYYADSVKGRFTISRDNAKNTVYLQMNSLKPEDTAVYYCNKAKTAYRGQYDYWGQGTQVTVSS” reads “high polyreactivity”; that for “QVQLVESGGGLVQAGGSLRLSCAASGRIIVRNAMGWYRQAPGKERELVAAISGSGSRTYYADSVKGRFTISRDNAKNTVYLQMNSLNPEDTAVYYCAASGYWPFRSGFGYWGQGTQVTVSS”, “high polyreactivity”.
Take “QVQLVESGGGLVQAGGSLRLSCAASGSTIADKAMGWYRQAPGKERELVAAITRSGVRTYYADSVKGRFTISRDNAKNTVYLQMNSLKPEDTAVYYCAKRTYPSRIYDYWGQGTQVTVSS”: the “polyreactivity (PSR sort gate)” value is listed as “low polyreactivity”.
In the case of “QVQHVESGGALVQAGGSLRLSCAASGRIFSPNAMGWYIQAPGKEWDLVAAISSGGSTYADSVKGRFTISRDNAKNTVYLQMNSLKPEDTAVYYCARTYQWTVAGRYRAYHAGYYWGQGTQVTVSS”, the “polyreactivity (PSR sort gate)” value was “high polyreactivity”.
“QVQLVESGGGLVQAGGSHRLSCAASGRIFGPYTMGWYRQAPGKERELVAAISLSGGSTYYADSVKGRFTISRDNAKNTVYLQMNRLKAEDTAVYYCNADHPFPQYEGGSWGQGTQVTVSS”: the “polyreactivity (PSR sort gate)” value is listed as “low polyreactivity”.
Turning to “QVQLVESGGGLVQAGGSLRLTCAASGRIFWRNAMGWYRQAPGKVREFVAAITGTGGSTYYADSVKGRFTISRDTAKNTVYLQMNSLKPEDTAVYYCAARWDYSYRYRLYYWGQGTQVTVSS”, the “polyreactivity (PSR sort gate)” value was “high polyreactivity”.
The value for “QVQIVESGGGLVQAGGSLRLSCAASGRIFDYYTMGWYRQAPGKERELVASISDGGRTNYADSVKGRFTISRDNAKNTVYLQMNSLKPEDTAVYYCAADFAPVAFDYWGQGTQVTVSS” was “low polyreactivity”.

For the origin of these results see the nanobody polyreactivity screen of Harvey et al. (2022).
